Measured values reported in US20020147999A1 (J DAVID GLADSTONE INSTITUTES, published 2002).

biological target: apoE cleavage enzyme (chymotrypsin-like serine protease; in mouse brain lysate or roughly/partially purified); assay: cell-based or functional assay

Row | Binder | inhibition of apoE cleavage enzyme activity (chromogenic assay, 1 mM Ala-Ala-Pro-Phe-p-nitroanilide; 6 mM peptide; 20 hour incubation) [%]
1 | AAPL [Ala-Ala-Pro-Leu (SEQ ID NO:3)] | 56
2 | AAAAPF [Ala-Ala-Ala-Ala-Pro-Phe (SEQ ID NO:4)] | 58
3 | AAPF [Ala-Ala-Pro-Phe (SEQ ID NO:1)] | 67
